Measured values published in patent US20110201024A1.

Target: hRLuc-connector-DhaA.H272F-Flag fusion protein with covalently bound biotin-C18H32O4- (after treatment with biotin-C18H32O4-Cl) (Renilla; Rhodococcus rhodochrous) (UniProt P0A3G2)
Assay: capture on streptavidin-coated 96 well plate after treatment with biotin-C18H32O4-Cl, read as luciferase activity

“streptavidin (SA), coated on 96 well plates (Pierce) or on MagnaBind beads (Pierce #21344) (from UniProt P22629 37-163)” showed an efficiency of capturing (percent of Renilla luciferase activity added to the plate) of over 50%.
